Where “and” joins values, the source holds several entries; their conditions need not be identical. Equal entries are not always repeated.
B1: Crn1-ΔIDR (Crn1 lacking the IDR, aa 401-604) (natural protein, S. cerevisiae, UniProt Q06440 1-651, looked up)
chain: MSGKFVRASKYRHVFGQAAKKELQYEKLKVTNNAWDSNLLKTNGKFIAVNWNASGGGAFAVIPIEEVGKAPDQVPLFRGHTAQVLDTDFDPFNDHRIASGSDDSKIGIWDIPENYKFHDHVDEDGEPIDIKPVKFLTGHARKVGHVLYHPVAENVLASSSGDYTVKLWNVETGKDMITLKHPDMVTSMSFSYDGNYLATVARDKKLRVWNIREEKIVSEGPAHTGAKNQRVVWLGNSDRLATTGFSKLSDRQIGIWDAFNIEKGDLGGFYTVDQSSGILMPFYDEGNKILYLVGKGDGNIRYYEFQNDELFELSEFQSTEAQRGFAVAPKRMVNVKENEVLKGFKTVVDQRIEPVSFFVPRRSEEFQEDIYPDAPSNKPALTAEEWFSGKSVEGPILVSMLGLKKSVEKLSTLVLQLEDVVDKLTKANLDKDERLLKLEQKIGELSK
notes: Crn1 (coronin), S. cerevisiae, residues 1-651 with the IDR (401-604) deleted; made from the pSY5-Crn1-FL plasmid; source: E. coli Rosetta (DE3), purified (HisTrap, SEC when necessary)
B2: Crn1-CC (C-terminal coiled-coil domain, aa 605-651) (domain or fragment, S. cerevisiae, UniProt Q06440 605-651, looked up)
chain: LGLKKSVEKLSTLVLQLEDVVDKLTKANLDKDERLLKLEQKIGELSK
notes: Crn1 (coronin), S. cerevisiae, residues 605-651, coiled-coil domain; made by truncating 401-604 from the Crn1-ΔN (401-651) plasmid; The introduction gives the CC domain as aa 600-651; also called CC domain; source: E. coli Rosetta (DE3), purified (HisTrap, SEC when necessary)
B3: Crn1ΔIDR-S (Crn1 with a short 40-aa middle fragment of the IDR) (natural protein, S. cerevisiae, UniProt Q06440 1-651, looked up)
chain: MSGKFVRASKYRHVFGQAAKKELQYEKLKVTNNAWDSNLLKTNGKFIAVNWNASGGGAFAVIPIEEVGKAPDQVPLFRGHTAQVLDTDFDPFNDHRIASGSDDSKIGIWDIPENYKFHDHVDEDGEPIDIKPVKFLTGHARKVGHVLYHPVAENVLASSSGDYTVKLWNVETGKDMITLKHPDMVTSMSFSYDGNYLATVARDKKLRVWNIREEKIVSEGPAHTGAKNQRVVWLGNSDRLATTGFSKLSDRQIGIWDAFNIEKGDLGGFYTVDQSSGILMPFYDEGNKILYLVGKGDGNIRYYEFQNDELFELSEFQSTEAQRGFAVAPKRMVNVKENEVLKGFKTVVDQRIEPVSFFVPRRSEEFQEDIYPDAPSNKPALTAEEWFSGKSVEGPILVSMSSDIDQVNNAEDPSRDTSGWEEADDEPAPIKIETPVTPTEPKSLGLKKSVEKLSTLVLQLEDVVDKLTKANLDKDERLLKLEQKIGELSK
notes: Crn1 (coronin), S. cerevisiae, residues 1-651 with 401-483 and 524-601 excluded by a two-step truncation of the full-length plasmid; short IDR 484-523 kept; By the stated limits residues 602-604 of the IDR stay in the construct; source: E. coli Rosetta (DE3), purified (HisTrap, SEC when necessary)
B4: Crn1-ΔN (IDR and CC domains, aa 401-651) (domain or fragment, S. cerevisiae, UniProt Q06440 401-651, looked up)
chain: RSIYDGSAPSFHEAKRPQQPTTQETALEEKKEQPKVEKPISESEKEVKQEAPKSPSPLKSASSSSTINHVLKEDNSINKLLKKSSDIDQVNNAEDPSRDTSGWEEADDEPAPIKIETPVTPTETKKDRTPKVEPSKELKPEPVSIATDRKQEQSLPQEEKSSEKTKSPEQEKSATPPSSITAAKTAITASSKEEPSAARTSPKSLGLKKSVEKLSTLVLQLEDVVDKLTKANLDKDERLLKLEQKIGELSK
notes: Crn1 (coronin), S. cerevisiae, residues 401-651 (IDR and CC domain); source: E. coli Rosetta (DE3), purified (HisTrap, SEC when necessary)
B5: Crn1 full-length (Crn1-FL), recombinant from E. coli (natural protein, S. cerevisiae, UniProt Q06440 1-651, looked up)
chain: MSGKFVRASKYRHVFGQAAKKELQYEKLKVTNNAWDSNLLKTNGKFIAVNWNASGGGAFAVIPIEEVGKAPDQVPLFRGHTAQVLDTDFDPFNDHRIASGSDDSKIGIWDIPENYKFHDHVDEDGEPIDIKPVKFLTGHARKVGHVLYHPVAENVLASSSGDYTVKLWNVETGKDMITLKHPDMVTSMSFSYDGNYLATVARDKKLRVWNIREEKIVSEGPAHTGAKNQRVVWLGNSDRLATTGFSKLSDRQIGIWDAFNIEKGDLGGFYTVDQSSGILMPFYDEGNKILYLVGKGDGNIRYYEFQNDELFELSEFQSTEAQRGFAVAPKRMVNVKENEVLKGFKTVVDQRIEPVSFFVPRRSEEFQEDIYPDAPSNKPALTAEEWFSGKSVEGPILVSMRSIYDGSAPSFHEAKRPQQPTTQETALEEKKEQPKVEKPISESEKEVKQEAPKSPSPLKSASSSSTINHVLKEDNSINKLLKKSSDIDQVNNAEDPSRDTSGWEEADDEPAPIKIETPVTPTETKKDRTPKVEPSKELKPEPVSIATDRKQEQSLPQEEKSSEKTKSPEQEKSATPPSSITAAKTAITASSKEEPSAARTSPKSLGLKKSVEKLSTLVLQLEDVVDKLTKANLDKDERLLKLEQKIGELSK
notes: Crn1 (coronin), S. cerevisiae, residues 1-651; Vector pET-21d(+)(pSY5) adds an 8x histidine tag and an HRV 3C protease site at the N-terminus; cleavage is not described; By AUC-SV a mix of monomers and tetramers; also called WT Crn1; source: E. coli Rosetta (DE3), purified (HisTrap, SEC when necessary)
B6: yeast purified full-length Crn1 (yCrn1-FL) (natural protein, S. cerevisiae, UniProt Q06440 1-651, looked up)
chain: B5 chain
notes: Crn1 (coronin), S. cerevisiae, full length; The text says C-terminal 6xHis-tagged, but names the vector as pGAL-ORF-3×StreptagII-9×His; source: S. cerevisiae (strain YMY2043, galactose-induced overexpression), purified (HisTrap)

Columns and labels:
[1] = target: the molecule itself; assay: SEC + other: negative-stain transmission electron microscopy; Superdex 200 increase 10/30 column in a pH 8 Tris-buffer with 150 mM NaCl; TEM of 1 µM protein in F-buffer
[2] = target: the molecule itself; assay: AUC; sedimentation velocity; 50 mM Tris pH 8.0, 150 mM NaCl, 20 °C, 30,000 or 45,000 rpm; c(s) and c(s,ff0) models in SEDFIT; samples at 3-9.2 µM
[3] = target: rabbit skeletal muscle actin (RMA), filamentous (F-actin) (rabbit, UniProt P68135 1-377); assay: co-sedimentation; high-speed actin cosedimentation: a range of concentrations of Crn1 variant with a fixed concentration of pre-polymerized actin filaments in F-buffer, room temperature 30 min, 100,000 x g 20 min at 25°C; bound against free coronin fitted with the Hill equation; conditions: both partners purified

| Kd [3] | Binder | binding result [1] | stoichiometry N [2] |
| --- | --- | --- | --- |
|  | B1 | binds |  |
|  | B2 |  | ~15 |
|  | B3 |  | 3 and 6 |
|  | B4 |  | 4 |
| 240 nM | B5 |  | 4 |
|  | B6 |  | 4 and 6 |
